As a reminder, the Km is the concentration of substrate that gives half-maximal velocity. For orientation: kcat means the number of substrate molecules converted per active site and unit of time at saturation. In general, kcat/Km refers to the second-order rate constant that governs catalysis at low substrate concentration.

Among the data in PMC5479800, “Thioesterase YbgC affects motility by modulating c-di-GMP levels in Shewanella oneidensis” (Scientific Reports, 2017) are Km, kcat and kcat/Km values, retold here.

Holding throughout (experiment): purified protein
Holding throughout (format): biochemical, Shewanella oneidensis
What all share (conditions): 25 °C, 200 mM sodium phosphate, pH 7.5 in table title, pH 7.0 in methods

Substrate in data set [1]: CC(=O)SCCNC(=O)CCNC(=O)[C@H](O)C(C)(C)COP(=O)(O)OP(=O)(O)OC[C@H]1O[C@@H](n2cnc3c(N)ncnc32)[C@H](O)[C@@H]1OP(=O)(O)O
Substrate in data set [2]: CCC(=O)SCCNC(=O)CCNC(=O)[C@H](O)C(C)(C)COP(=O)(O)OP(=O)(O)OC[C@H]1O[C@@H](n2cnc3c(N)ncnc32)[C@H](O)[C@@H]1OP(=O)(O)O
Substrate in data set [3]: CCCC(=O)SCCNC(=O)CCNC(=O)[C@H](O)C(C)(C)COP(=O)(O)OP(=O)(O)OC[C@H]1O[C@@H](n2cnc3c(N)ncnc32)[C@H](O)[C@@H]1OP(=O)(O)O
Substrate in data set [4]: CCCCCCCC(=O)SCCNC(=O)CCNC(=O)[C@H](O)C(C)(C)COP(=O)(O)OP(=O)(O)OC[C@H]1O[C@@H](n2cnc3c(N)ncnc32)[C@H](O)[C@@H]1OP(=O)(O)O

B1: SoYbgC (S. oneidensis YbgC) (Shewanella oneidensis MR-1) (protein)
chain: MTFNWPISVYYEDTDAGGVVYHSNYLNFFERARTEWLKALGVSQTALLADDTAFVVKRAELDFKKAARFEQNLIVETKVIELKKASLVFHQRLVDHLGDCYCEGTVLVACVALSRMRPRAIPLNIVQEFDSAS
As for B1, the Km is recorded as 3.5 ± 0.4 µM in the data set “purified protein [1]”, 4.8 ± 0.6 µM in the data set “purified protein [2]”, 17 ± 2 µM in “purified protein [3]” and 34 ± 4 µM in “purified protein [4]”. The kcat in the data set “purified protein [1]” turned out to be 8 ± 0.7 s⁻¹; in the data set “purified protein [2]” it was 3.9 ± 5 s⁻¹; in the data set “purified protein [3]” it was 1.3 ± 0.1 s⁻¹; in the data set “purified protein [4]”, 0.15 ± 0.01 s⁻¹. Besides, the kcat/Km in the data set “purified protein [1]” was 2.3e+06 M⁻¹ s⁻¹; in “purified protein [2]”, 810000 M⁻¹ s⁻¹; in the data set “purified protein [3]”, 76000 M⁻¹ s⁻¹; in the data set “purified protein [4]”, 4400 M⁻¹ s⁻¹.

B2: SoYbgC (S. oneidensis YbgC) (Shewanella oneidensis MR-1; D15N) (protein)
chain: MTFNWPISVYYEDTNAGGVVYHSNYLNFFERARTEWLKALGVSQTALLADDTAFVVKRAELDFKKAARFEQNLIVETKVIELKKASLVFHQRLVDHLGDCYCEGTVLVACVALSRMRPRAIPLNIVQEFDSAS
Take B2: in “purified protein [1]”, the Km was found to be 231 ± 37 µM.
